The target of assay [1] is C5a (Homo sapiens) (UniProt P01031). Kind of assay: SPR. As to conditions: cited from earlier work.
The target of assay [2] is rhC5a_(R37A) (human). Kind of assay: SPR; BIAcore X100, NTA sensor chip with about 20-25 RU of immobilised His-tagged C5a form (ligand), ScpA form flowed as ligate at 30 uL/min, 25 °C, 10 mM Hepes-KOH pH 7.4, 150 mM NaCl, 0.005% Tween 20, 50 uM EDTA; global fit, 1:1 Langmuir model with drifting baseline; triplicate. For orientation: In SPR one partner is held on a chip, and binding of the other changes the refractive index at the surface.

For assay [3], the target named is R46A_(core) (human). The description is as above.
Assay [4] has as its target R40A_(core) (human). Described as above.
Assay [5] concerns the target R37A_(core) (human). The assay is described as above.
Assay [6] addresses rhC5a_(R46A) (human). Described as above.
The target in assay [7] is rhC5a_(core) (human). Described as above.
Assay [8] deals with rhC5a_(R40A) (human). The assay is described as above.

Chain of C5a (Homo sapiens) (P01031 678-751): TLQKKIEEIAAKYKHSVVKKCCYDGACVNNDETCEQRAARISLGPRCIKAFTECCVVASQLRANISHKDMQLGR

In the case of ScpA (from UniProt P58099), the Kd in assay [1] was 35 nM.

B1: ScpA_(S512A) (enzyme)
chain: ANTVTEDTPVTEQAVETPQPTAVSEEVPSSKETKTPQTPDDAEETIADDANDLAPQAPAKTADTPATSKATIRDLNDPSQVKTLQEKAGKGAGTVVAVIDAGFDKNHEAWRLTDKTKARYQSKEDLEKAKKEHGITYGEWVNDKVAYYHDYSKDGKTAVDQEHGTHVSGILSGNAPSETKEPYRLEGAMPEAQLLLMRVEIVNGLADYARNYAQAIRDAVNLGAKVINMSFGNAALAYANLPDETKKAFDYAKSKGVSIVTSAGNDSSFGGKTRLPLADHPDYGVVGTPAAADSTLTVASYSPDKQLTETAMVKTDDQQDKEMPVLSTNRFEPNKAYDYAYANRGMKEDDFKDVKGKIALIERGDIDFKDKVANAKKAGAVGVLIYDNQDKGFPIELPNVDQMPAAFISRKDGLLLKDNPQKTITFNATPKVLPTASGTKLSRFSSWGLTADGNIKPDIAAPGQDILSSVANNKYAKLSGTAMSAPLVAGIMGLLQKQYETQYPDMTPSERLDLAKKVLMSSATALYDEDEKAYFSPRQQGAGAVDAKKASAATMYVTDKDNTSSKVHLNNVSDKFEVTVTVHNKSDKPQELYYQATVQTDKVDGKHFALAPKVLYEASWQKITIPANSSKQVTVPIDASRFSKDLLAQMKNGYFLEGFVRFKQDPTKEELMSIPYIGFRGDFGNLSAVEKPIYDSKDGSSYYHEANSDAKDQLDGDGLQFYALKNNFTALTTESNPWTIIKAVKEGVENIEDIESSEITETIFAGTFAKQDDDSHYYIHRHANGEPYAAISPNGDGNRDYVQFQGTFLRNAKNLVAEVLDKEGNVVWTSEVTEQVVKNYNNDLASTLGSTRFEKTRWDGKDKDGKVVANGTYTYRVRYTPISSGAKEQHTDFDVIVDNTTPEVATSATFSTEDRRLTLASKPKTSQPVYRERIAYTYMDEDLPTTEYISPNEDGTFTLPEEAETMEGATVPLKMSDFTYVVEDMAGNITYTPVTKLLEGHS
Turning to B1, the Kd in assay [2] is 217 nM; in assay [3] it was 691 nM; in assay [4], 1340 nM; in assay [5] it was 453 nM; in assay [6] it was 220 nM; in assay [7], 170 nM. Further, the dissociation constant (Kd) in assay [8] was 290 nM. In addition, the koff was 0.0176 s⁻¹ in assay [2]; 0.0152 s⁻¹ in assay [3]; 0.0258 s⁻¹ in assay [4]; 0.0151 s⁻¹ in assay [5]; 0.0226 s⁻¹ in assay [6]; 0.0075 s⁻¹ in assay [7]. Further, in assay [8], the koff was 0.0274 s⁻¹. Moreover, the kon in assay [2] worked out at 81200 M⁻¹ s⁻¹; in assay [3] it was 22000 M⁻¹ s⁻¹; in assay [4] it was 19300 M⁻¹ s⁻¹; in assay [5], 33300 M⁻¹ s⁻¹; in assay [6] it was 103000 M⁻¹ s⁻¹; in assay [7], 45000 M⁻¹ s⁻¹. Besides, the on-rate (kon) in assay [8] is 94400 M⁻¹ s⁻¹.

B2: ScpA_(S512A,D889A) (enzyme)
chain: ANTVTEDTPVTEQAVETPQPTAVSEEVPSSKETKTPQTPDDAEETIADDANDLAPQAPAKTADTPATSKATIRDLNDPSQVKTLQEKAGKGAGTVVAVIDAGFDKNHEAWRLTDKTKARYQSKEDLEKAKKEHGITYGEWVNDKVAYYHDYSKDGKTAVDQEHGTHVSGILSGNAPSETKEPYRLEGAMPEAQLLLMRVEIVNGLADYARNYAQAIRDAVNLGAKVINMSFGNAALAYANLPDETKKAFDYAKSKGVSIVTSAGNDSSFGGKTRLPLADHPDYGVVGTPAAADSTLTVASYSPDKQLTETAMVKTDDQQDKEMPVLSTNRFEPNKAYDYAYANRGMKEDDFKDVKGKIALIERGDIDFKDKVANAKKAGAVGVLIYDNQDKGFPIELPNVDQMPAAFISRKDGLLLKDNPQKTITFNATPKVLPTASGTKLSRFSSWGLTADGNIKPDIAAPGQDILSSVANNKYAKLSGTAMSAPLVAGIMGLLQKQYETQYPDMTPSERLDLAKKVLMSSATALYDEDEKAYFSPRQQGAGAVDAKKASAATMYVTDKDNTSSKVHLNNVSDKFEVTVTVHNKSDKPQELYYQATVQTDKVDGKHFALAPKVLYEASWQKITIPANSSKQVTVPIDASRFSKDLLAQMKNGYFLEGFVRFKQDPTKEELMSIPYIGFRGDFGNLSAVEKPIYDSKDGSSYYHEANSDAKDQLDGDGLQFYALKNNFTALTTESNPWTIIKAVKEGVENIEDIESSEITETIFAGTFAKQDDDSHYYIHRHANGEPYAAISPNGDGNRDYVQFQGTFLRNAKNLVAEVLDKEGNVVWTSEVTEQVVKNYNNDLASTLGSTRFEKTRWAGKDKDGKVVANGTYTYRVRYTPISSGAKEQHTDFDVIVDNTTPEVATSATFSTEDRRLTLASKPKTSQPVYRERIAYTYMDEDLPTTEYISPNEDGTFTLPEEAETMEGATVPLKMSDFTYVVEDMAGNITYTPVTKLLEGHS
Consider B2, for which the Kd in assay [2] was 68.3 nM; in assay [3] it was 965 nM; in assay [4] it was 734 nM; in assay [5] it was 384 nM; in assay [6], 86.6 nM; in assay [7], 90 nM. Moreover, the Kd in assay [8] was determined as 94.9 nM. The koff in assay [2] was 0.00934 s⁻¹; in assay [3] it was 0.0121 s⁻¹; in assay [4], 0.0182 s⁻¹; in assay [5], 0.0115 s⁻¹; in assay [6], 0.0129 s⁻¹; in assay [7] it was 0.004 s⁻¹. The koff in assay [8] worked out at 0.0259 s⁻¹. Further, the kon in assay [2] stood at 137000 M⁻¹ s⁻¹; in assay [3] it was 12500 M⁻¹ s⁻¹; in assay [4] it was 24800 M⁻¹ s⁻¹; in assay [5], 30100 M⁻¹ s⁻¹; in assay [6] it was 148000 M⁻¹ s⁻¹; in assay [7], 44400 M⁻¹ s⁻¹. This molecule came in with a kon in assay [8] of 273000 M⁻¹ s⁻¹.

B3: ScpA_(S512A,E864A) (enzyme)
chain: ANTVTEDTPVTEQAVETPQPTAVSEEVPSSKETKTPQTPDDAEETIADDANDLAPQAPAKTADTPATSKATIRDLNDPSQVKTLQEKAGKGAGTVVAVIDAGFDKNHEAWRLTDKTKARYQSKEDLEKAKKEHGITYGEWVNDKVAYYHDYSKDGKTAVDQEHGTHVSGILSGNAPSETKEPYRLEGAMPEAQLLLMRVEIVNGLADYARNYAQAIRDAVNLGAKVINMSFGNAALAYANLPDETKKAFDYAKSKGVSIVTSAGNDSSFGGKTRLPLADHPDYGVVGTPAAADSTLTVASYSPDKQLTETAMVKTDDQQDKEMPVLSTNRFEPNKAYDYAYANRGMKEDDFKDVKGKIALIERGDIDFKDKVANAKKAGAVGVLIYDNQDKGFPIELPNVDQMPAAFISRKDGLLLKDNPQKTITFNATPKVLPTASGTKLSRFSSWGLTADGNIKPDIAAPGQDILSSVANNKYAKLSGTAMSAPLVAGIMGLLQKQYETQYPDMTPSERLDLAKKVLMSSATALYDEDEKAYFSPRQQGAGAVDAKKASAATMYVTDKDNTSSKVHLNNVSDKFEVTVTVHNKSDKPQELYYQATVQTDKVDGKHFALAPKVLYEASWQKITIPANSSKQVTVPIDASRFSKDLLAQMKNGYFLEGFVRFKQDPTKEELMSIPYIGFRGDFGNLSAVEKPIYDSKDGSSYYHEANSDAKDQLDGDGLQFYALKNNFTALTTESNPWTIIKAVKEGVENIEDIESSEITETIFAGTFAKQDDDSHYYIHRHANGEPYAAISPNGDGNRDYVQFQGTFLRNAKNLVAEVLDKEGNVVWTSEVTAQVVKNYNNDLASTLGSTRFEKTRWDGKDKDGKVVANGTYTYRVRYTPISSGAKEQHTDFDVIVDNTTPEVATSATFSTEDRRLTLASKPKTSQPVYRERIAYTYMDEDLPTTEYISPNEDGTFTLPEEAETMEGATVPLKMSDFTYVVEDMAGNITYTPVTKLLEGHS
Regarding B3, the Kd in assay [2] was determined as 67.1 nM; in assay [3] it was 624 nM; in assay [4], 751 nM; in assay [5], 532 nM; in assay [6], 62.1 nM; in assay [7], 88.7 nM. The Kd in assay [8] was 346 nM. In addition, the koff in assay [2] was found to be 0.0101 s⁻¹; in assay [3], 0.0132 s⁻¹; in assay [4], 0.0195 s⁻¹; in assay [5], 0.0121 s⁻¹; in assay [6], 0.0213 s⁻¹; in assay [7], 0.00438 s⁻¹. Also, the koff in assay [8] amounted to 0.0271 s⁻¹. Besides, the kon in assay [2] worked out at 150000 M⁻¹ s⁻¹; in assay [3] it was 21200 M⁻¹ s⁻¹; in assay [4] it was 26100 M⁻¹ s⁻¹; in assay [5] it was 22800 M⁻¹ s⁻¹; in assay [6], 344000 M⁻¹ s⁻¹; in assay [7], 49300 M⁻¹ s⁻¹. This molecule gave a kon in assay [8] of 78500 M⁻¹ s⁻¹.

Broadly, the Kd is the free concentration of one partner at which half of the binding sites on the other are occupied at equilibrium, for simple one-to-one binding. The koff is a measure of how fast the partners let go of each other. The low end stands for a long-lived complex, the high end for a short-lived complex. One may read the kon as the rate constant with which the complex forms. Low values mean slower complex formation, high ones faster complex formation.
